Reference: patent publication US20030119716A1, “Methods for screening, treating and diagnosing G-protein coupled receptor-related disorders and compositions thereof” (Wyeth, priority 2001, published 2003)

Columns and labels:
Gαi1 = experiment: cell-based or functional assay
Gαq/i chimera = experiment: cell-based or functional assay

B1: human RGS2 (protein, UniProt P41220 1-211, looked up)
chain: MQSAMFLAVQHDCRPMDKSAGSGHKSEEKREKMKRTLLKDWKTRLSYFLQNSSTPGKPKTGKKSKQQAFIKPSPEEAQLWSEAFDELLASKYGLAAFRAFLKSEFCEENIEFWLACEDFKKTKSPQKLSSKARKIYTDFIEKEAPKEINIDFQTKTLIAQNIQEATSGCFTTAQKRVYSLMENNSYPRFLESEFYQDLCKKPQITTEPHAT
attenuation of SRE activation (SRE-luciferase reporter, CHO-D2R cells co-transfected with Gαi1) (Gαi1): 25 to 30%
reduction in SRE activation (SRE-luciferase reporter, CHO-D2R cells) (Gαq/i chimera): 70%
